Here are results for 5 molecules from US20140274782A1, “AFFINITY REAGENTS AND METHODS FOR DETECTION, PURIFICATION, AND PROTEOMIC ANALYSIS OF METHYLATED PROTEINS” (The Board of Trustees of the Leland Stanford Junior …, priority 2013, published 2014).

One test relates to 3×MBT domain of L3MBTL1. The test is described as follows: Triple SILAC pull-down, 3xMBT/3xMBTD355N ratio (cytoplasmic, nuclear and chromatin fractions of 293T cells).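 On all read-outs here: proteins quantified with MaxQuant, requiring at least two unique peptides and quantification in both label directions, normalized to the mean of proteins from a digested loading control.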 The test is classed as binding, human. The settings on record: SILAC ratio 3xMBT vs 3xMBTD355N pull-down, 293T cells, all values in log base 2; for 3xMBT/D355N UNC Heavy: experiment with UNC0638 in heavy SILAC media; for 3xMBT/D355N UNC Light: experiment with UNC0638 in light SILAC media.

A further test has as its target T1, G9a and GLP (Homo sapiens, UniProt Q96KQ7+Q9H9B1).
T1 sequence (Q96KQ7 2-1210 limits assumed): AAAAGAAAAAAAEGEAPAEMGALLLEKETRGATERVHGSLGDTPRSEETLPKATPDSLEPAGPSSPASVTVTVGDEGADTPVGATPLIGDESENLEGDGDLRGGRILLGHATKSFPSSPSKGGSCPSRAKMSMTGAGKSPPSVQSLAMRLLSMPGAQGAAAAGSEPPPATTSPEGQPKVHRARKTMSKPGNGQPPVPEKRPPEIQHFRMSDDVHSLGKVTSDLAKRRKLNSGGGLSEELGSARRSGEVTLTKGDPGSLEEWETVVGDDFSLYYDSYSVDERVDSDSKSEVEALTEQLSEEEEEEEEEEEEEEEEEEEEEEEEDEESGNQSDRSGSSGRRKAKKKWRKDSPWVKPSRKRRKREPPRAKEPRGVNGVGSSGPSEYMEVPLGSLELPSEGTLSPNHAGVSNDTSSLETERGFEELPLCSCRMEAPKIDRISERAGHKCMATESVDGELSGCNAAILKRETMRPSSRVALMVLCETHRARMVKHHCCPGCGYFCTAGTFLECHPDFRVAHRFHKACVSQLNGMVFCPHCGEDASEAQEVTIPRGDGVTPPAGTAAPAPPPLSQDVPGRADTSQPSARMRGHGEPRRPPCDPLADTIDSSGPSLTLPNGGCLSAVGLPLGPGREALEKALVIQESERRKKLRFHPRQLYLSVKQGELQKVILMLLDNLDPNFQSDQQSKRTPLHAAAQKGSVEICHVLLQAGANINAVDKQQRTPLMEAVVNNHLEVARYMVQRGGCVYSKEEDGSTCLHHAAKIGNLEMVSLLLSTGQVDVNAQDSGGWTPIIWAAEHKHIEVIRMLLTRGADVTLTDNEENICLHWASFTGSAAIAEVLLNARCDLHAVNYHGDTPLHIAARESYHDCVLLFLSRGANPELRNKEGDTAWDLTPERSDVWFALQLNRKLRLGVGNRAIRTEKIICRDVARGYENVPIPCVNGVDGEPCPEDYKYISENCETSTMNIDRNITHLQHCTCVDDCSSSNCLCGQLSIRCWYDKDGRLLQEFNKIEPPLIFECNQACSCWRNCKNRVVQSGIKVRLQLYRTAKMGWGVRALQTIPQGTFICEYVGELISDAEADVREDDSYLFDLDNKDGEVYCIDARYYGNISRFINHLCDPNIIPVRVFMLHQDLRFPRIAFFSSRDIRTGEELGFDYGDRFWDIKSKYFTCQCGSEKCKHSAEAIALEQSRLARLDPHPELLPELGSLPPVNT
T1 sequence (Q9H9B1 2-1298 limits assumed): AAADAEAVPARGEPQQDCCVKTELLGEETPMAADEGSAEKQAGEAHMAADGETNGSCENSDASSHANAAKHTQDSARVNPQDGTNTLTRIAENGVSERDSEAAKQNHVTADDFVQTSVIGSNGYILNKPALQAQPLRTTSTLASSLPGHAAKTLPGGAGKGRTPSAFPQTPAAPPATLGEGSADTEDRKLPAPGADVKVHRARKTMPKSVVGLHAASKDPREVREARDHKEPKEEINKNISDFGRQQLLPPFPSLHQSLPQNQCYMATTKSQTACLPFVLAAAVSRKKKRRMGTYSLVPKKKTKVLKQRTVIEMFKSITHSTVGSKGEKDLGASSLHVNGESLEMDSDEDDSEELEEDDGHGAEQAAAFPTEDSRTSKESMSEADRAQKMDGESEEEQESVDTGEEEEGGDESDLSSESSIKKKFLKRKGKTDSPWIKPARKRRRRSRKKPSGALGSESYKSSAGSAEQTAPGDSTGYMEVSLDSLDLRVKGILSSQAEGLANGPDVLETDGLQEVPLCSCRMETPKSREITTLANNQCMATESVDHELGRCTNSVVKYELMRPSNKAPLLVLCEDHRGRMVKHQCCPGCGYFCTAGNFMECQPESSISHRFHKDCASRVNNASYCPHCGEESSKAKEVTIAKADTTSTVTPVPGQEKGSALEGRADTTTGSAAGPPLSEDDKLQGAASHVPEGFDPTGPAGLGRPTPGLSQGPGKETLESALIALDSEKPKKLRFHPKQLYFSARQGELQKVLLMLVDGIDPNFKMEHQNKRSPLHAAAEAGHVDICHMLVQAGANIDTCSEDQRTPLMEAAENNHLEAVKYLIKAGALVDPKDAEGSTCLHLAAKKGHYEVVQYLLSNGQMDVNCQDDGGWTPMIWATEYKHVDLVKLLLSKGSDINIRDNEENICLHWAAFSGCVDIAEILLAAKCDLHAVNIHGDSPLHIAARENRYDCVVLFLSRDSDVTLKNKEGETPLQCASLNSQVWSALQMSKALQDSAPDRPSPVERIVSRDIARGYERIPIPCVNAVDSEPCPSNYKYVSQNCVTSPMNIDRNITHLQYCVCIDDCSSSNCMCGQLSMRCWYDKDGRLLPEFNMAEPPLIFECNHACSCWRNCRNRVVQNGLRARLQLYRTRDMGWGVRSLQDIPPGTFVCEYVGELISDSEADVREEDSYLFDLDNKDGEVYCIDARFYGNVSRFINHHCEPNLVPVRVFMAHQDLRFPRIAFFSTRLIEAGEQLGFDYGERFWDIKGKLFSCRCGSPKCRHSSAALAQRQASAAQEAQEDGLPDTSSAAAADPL
As to the kind of experiment: Triple SILAC pull-down after UNC0638 treatment of 293T cells, DMSO/UNC0638 ratio of protein captured by 3×MBT.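 On all read-outs here: mass spectrometry (Q-Exactive) SILAC quantitation, DMSO/UNC0638 ratio computed after subtracting 3×MBTD355N mutant pull-down background, only proteins with at least twofold 3×MBT over mutant signal considered.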 The test is classed as cell-based. Also on record: cells were treated for 24 hours with UNC0638 at 2.5 μM or DMSO vehicle control; endogenous in cells; host or cells: HEK 293T. The conditions noted are these: all values in log base 2; for Relative to UNC0638 UNC Heavy / Relative to UNC0638 UNC Light: SILAC ratio DMSO relative to UNC0638, pull-down with 3xMBT; for Relative to UNC0638 UNC Heavy: UNC0638 in heavy SILAC media; for Relative to UNC0638 UNC Light: UNC0638 in light SILAC media; for Relative to UNC0638 Average: average of UNC Light and UNC Heavy experiments.

B1: NPM3 (protein, UniProt O75607 2-178, looked up)
Nucleoplasmin-3: AAGTAAALAFLSQESRTRAGGVGGLRVPAPVTMDSFFFGCELSGHTRSFTFKVEEEDDAEHVLALTMLCLTEGAKDECNVVEVVARNHDHQEIAVPVANLKLSCQPMLSLDDFQLQPPVTFRLKSGSGPVRITGRHQIVTMSNDVSEEESEEEEEDSDEEEVELCPILPAKKQGGRP
Turning to B1, in the test on 3×MBT domain of L3MBTL1, the “3xMBT/D355N UNC Heavy” value was found to be 2.70 log base 2 and the “3xMBT/D355N UNC Light” value is on record as 2.15 log base 2. In the test with G9a and GLP, the “Relative to UNC0638 UNC Heavy” value is 0.13 log base 2, the “Relative to UNC0638 UNC Light” value is given as 0.03 log base 2 and the “Relative to UNC0638 Average” value was found to be 0.08 log base 2.

B2: RPRD1A (protein, UniProt Q96P16 2-312, looked up)
Regulation of nuclear …: SAFSEAALEKKLSELSNSQQSVQTLSLWLIHHRKHSRPIVTVWERELRKAKPNRKLTFLYLANDVIQNSKRKGPEFTKDFAPVIVEAFKHVSSETDESCKKHLGRVLSIWEERSVYENDVLEQLKQALYGDKKPRKRTYEQIKVDENENCSSLGSPSEPPQTLDLVRALQDLENAASGDAAVHQRIASLPVEVQEVSLLDKITDKESGERLSKMVEDACMLLADYNGRLAAEIDDRKQLTRMLADFLRCQKEALAEKEHKLEEYKRKLARVSLVRKELRSRIQSLPDLSRLPNVTGSHMHLPFAGDIYSED
B2: in the test on 3×MBT domain of L3MBTL1, the “3xMBT/D355N UNC Heavy” value is 2.16 log base 2 and the “3xMBT/D355N UNC Light” value is 1.62 log base 2. In addition, in the test with G9a and GLP, the “Relative to UNC0638 UNC Heavy” value was 0.16 log base 2, the “Relative to UNC0638 UNC Light” value is on record as −0.02 log base 2 and the “Relative to UNC0638 Average” value is listed as 0.07 log base 2.

B3: SRRT (protein, UniProt Q9BXP5 2-876, looked up)
Serrate RNA effector molecule …: GDSDDEYDRRRRDKFRRERSDYDRSRERDERRRGDDWNDREWDRGRERRSRGEYRDYDRNRRERFSPPRHELSPPQKRMRRDWDEHSSDPYHSGYEMPYAGGGGGPTYGPPQPWGHPDVHIMQHHVLPIQARLGSIAEIDLGVPPPVMKTFKEFLLSLDDSVDETEAVKRYNDYKLDFRRQQMQDFFLAHKDEEWFRSKYHPDEVGKRRQEARGALQNRLRVFLSLMETGWFDNLLLDIDKADAIVKMLDAAVIKMEGGTENDLRILEQEEEEEQAGKPGEPSKKEEGRAGAGLGDGERKTNDKDEKKEDGKQAENDSSNDDKTKKSEGDGDKEEKKEDSEKEAKKSSKKRNRKHSGDDSFDEGSVSESESESESGQAEEEKEEAEEALKEKEKPKEEEWEKPKDAAGLECKPRPLHKTCSLFMRNIAPNISRAEIISLCKRYPGFMRVALSEPQPERRFFRRGWVTFDRSVNIKEICWNLQNIRLRECELSPGVNRDLTRRVRNINGITQHKQIVRNDIKLAAKLIHTLDDRTQLWASEPGTPPLPTSLPSQNPILKNITDYLIEEVSAEEEELLGSSGGAPPEEPPKEGNPAEINVERDEKLIKVLDKLLLYLRIVHSLDYYNTCEYPNEDEMPNRCGIIHVRGPMPPNRISHGEVLEWQKTFEEKLTPLLSVRESLSEEEAQKMGRKDPEQEVEKFVTSNTQELGKDKWLCPLSGKKFKGPEFVRKHIFNKHAEKIEEVKKEVAFFNNFLTDAKRPALPEIKPAQPPGPAQILPPGLTPGLPYPHQTPQGLMPYGQPRPPILGYGAGAVRPAVPTGGPPYPHAPYGAGRGNYDAFRGQGGYPGKPRNRMVRGDPRAIVEYRDLDAPDDVDFF
B3: in the test with 3×MBT domain of L3MBTL1, the “3xMBT/D355N UNC Heavy” value amounted to 2.15 log base 2 and the “3xMBT/D355N UNC Light” value turned out to be 2.41 log base 2. Also, in the test with G9a and GLP, the “Relative to UNC0638 UNC Heavy” value amounted to 0.02 log base 2, the “Relative to UNC0638 UNC Light” value was 0.15 log base 2 and the “Relative to UNC0638 Average” value worked out at 0.08 log base 2.

B4: MRE11A (protein, UniProt P49959 2-708, looked up)
Double-strand break repair …: STADALDDENTFKILVATDIHLGFMEKDAVRGNDTFVTLDEILRLAQENEVDFILLGGDLFHENKPSRKTLHTCLELLRKYCMGDRPVQFEILSDQSVNFGFSKFPWVNYQDGNLNISIPVFSIHGNHDDPTGADALCALDILSCAGFVNHFGRSMSVEKIDISPVLLQKGSTKIALYGLGSIPDERLYRMFVNKKVTMLRPKEDENSWFNLFVIHQNRSKHGSTNFIPEQFLDDFIDLVIWGHEHECKIAPTKNEQQLFYISQPGSSVVTSLSPGEAVKKHVGLLRIKGRKMNMHKIPLHTVRQFFMEDIVLANHPDIFNPDNPKVTQAIQSFCLEKIEEMLENAERERLGNSHQPEKPLVRLRVDYSGGFEPFSVLRFSQKFVDRVANPKDIIHFFRHREQKEKTGEEINFGKLITKPSEGTTLRVEDLVKQYFQTAEKNVQLSLLTERGMGEAVQEFVDKEEKDAIEELVKYQLEKTQRFLKERHIDALEDKIDEEVRRFRETRQKNTNEEDDEVREAMTRARALRSQSEESASAFSADDLMSIDLAEQMANDSDDSISAATNKGRGRGRGRRGGRGQNSASRGGSQRGRADTGLETSTRSRNSKTAVSASRNMSIIDAFKSTRQQPSRNVTTKNYSEVIEVDESDVEEDIFPTTSKTDQRWSSTSSSKIMSQSQVSKGVDFESSEDDDDDPFMNTSSLRRNRR
Take B4: in the test on 3×MBT domain of L3MBTL1, the “3xMBT/D355N UNC Heavy” value is 1.35 log base 2 and the “3xMBT/D355N UNC Light” value is on record as 2.06 log base 2. Further, in the test with G9a and GLP, the “Relative to UNC0638 UNC Heavy” value turned out to be 0.07 log base 2, the “Relative to UNC0638 UNC Light” value is listed as 0.07 log base 2 and the “Relative to UNC0638 Average” value worked out at 0.07 log base 2.

B5: TK1 (protein, UniProt P04183 2-234, looked up)
Thymidine kinase, cytosolic: SCINLPTVLPGSPSKTRGQIQVILGPMFSGKSTELMRRVRRFQIAQYKCLVIKYAKDTRYSSSFCTHDRNTMEALPACLLRDVAQEALGVAVIGIDEGQFFPDIVEFCEAMANAGKTVIVAALDGTFQRKPFGAILNLVPLAESVVKLTAVCMECFREAAYTKRLGTEKEVEVIGGADKYHSVCRLCYFKKASGQPAGPDNKENCPVPGKPGEAVAARKLFAPQQILQCSPAN
As for B5, in the test on 3×MBT domain of L3MBTL1, the “3xMBT/D355N UNC Heavy” value worked out at 2.89 log base 2 and the “3xMBT/D355N UNC Light” value worked out at 2.36 log base 2. Further, in the test with G9a and GLP, the “Relative to UNC0638 UNC Heavy” value is 0.63 log base 2, the “Relative to UNC0638 UNC Light” value is reported as −0.50 log base 2 and the “Relative to UNC0638 Average” value was 0.07 log base 2.
